Assay results from the supplement of paper PMC5998384.

How the values were obtained:
HeLa Kyoto [1] = test: solubility in G1/S (NP-40 vs SDS abundance) (log2 ratio); higher = more soluble; conditions: cell cycle stage: G1/S
HeLa Kyoto [2] = test: solubility change mitosis vs G1/S (difference of NP-40 vs SDS log2 ratios) (log2 ratio difference); higher = more soluble in mitosis
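Throughout, for solubility change mitosis vs G1/S (difference of NP-40 vs SDS log2 ratios): synchronized HeLa Kyoto cells (double thymidine block for G1/S, nocodazole release for mitosis), protein amounts in NP-40 versus SDS lysates quantified by mass spectrometry, three biological replicates.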
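Throughout, for solubility in G1/S (NP-40 vs SDS abundance): HeLa Kyoto cells arrested at G1/S by double thymidine block, proteins quantified by TMT10plex mass spectrometry in mild NP-40 versus SDS extracts, three biological replicates.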

Chain of MBD4 (chain, as listed by the source): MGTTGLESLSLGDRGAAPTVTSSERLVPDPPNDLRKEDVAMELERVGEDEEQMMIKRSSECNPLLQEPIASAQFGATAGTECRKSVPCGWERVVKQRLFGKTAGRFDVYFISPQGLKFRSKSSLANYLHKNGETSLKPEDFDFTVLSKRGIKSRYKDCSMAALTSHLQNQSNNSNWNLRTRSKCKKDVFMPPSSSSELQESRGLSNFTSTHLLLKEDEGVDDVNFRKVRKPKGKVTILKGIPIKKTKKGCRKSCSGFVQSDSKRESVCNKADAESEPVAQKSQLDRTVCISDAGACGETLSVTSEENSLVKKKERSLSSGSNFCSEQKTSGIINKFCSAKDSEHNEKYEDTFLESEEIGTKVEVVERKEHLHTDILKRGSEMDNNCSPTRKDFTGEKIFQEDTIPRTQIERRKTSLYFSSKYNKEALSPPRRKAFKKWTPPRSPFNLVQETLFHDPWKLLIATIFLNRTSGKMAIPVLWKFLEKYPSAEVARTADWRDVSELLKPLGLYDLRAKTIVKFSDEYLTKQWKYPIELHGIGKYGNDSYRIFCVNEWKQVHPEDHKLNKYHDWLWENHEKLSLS

MASGDFCSPGEGMEILQQVCSKQLPPCNLSKEDLLQNPYFSKLLLNLSQHVDESGLSLTLAKEQAQAWKEVRLHKTTWLRSEILHRVIQELLVDYYVKIQDTNVTSEDKKFHETLEQRLLVTELMRLLGPSQEREIPPLLGLEKADLLELMPLSEDFVWMRARLQQEVEEQLKKKCFTLLCYYDPNSDADSETVKAAKVWKLAEVLVGEQQQCQDAKSQQKEQMLLLEKKSAAYSQVLLRCLTLLQRLLQEHRLKTQSELDRINAQYLEVKCGAMILKLRMEELKILSDTYTVEKVEVHRLIRDRLEGAIHLQEQDMENSRQVLNSYEVLGEEFDRLVKEYTVLKQATENKRWALQEFSKVYR [HAUS4]
solubility in G1/S (log2) (HeLa Kyoto [1]): 0.377
solubility change mitosis (log2) (HeLa Kyoto [2]): -0.0485

MASKKVCIVGSGNWGSAIAKIVGGNAAQLAQFDPRVTMWVFEEDIGGKKLTEIINTQHENVKYLPGHKLPPNVVAVPDVVQAAEDADILIFVVPHQFIGKICDQLKGHLKANATGISLIKGVDEGPNGLKLISEVIGERLGIPMSVLMGANIASEVADEKFCETTIGCKDPAQGQLLKELMQTPNFRITVVQEVDTVEICGALKNVVAVGAGFCDGLGFGDNTKAAVIRLGLMEMIAFAKLFCSGPVSSATFLESCGVADLITTCYGGRNRKVAEAFARTGKSIEQLEKELLNGQKLQGPETARELYSILQHKGLVDKFPLFMAVYKVCYEGQPVGEFIHCLQNHPEHM [GPD1]
solubility in G1/S (log2) (HeLa Kyoto [1]): 0.278
solubility change mitosis (log2) (HeLa Kyoto [2]): 0.00396

MASSGAGDPLDSKRGEAPFAQRIDPTREKLTPEQLHSMRQAELAQWQKVLPRRRTRNIVTGLGIGALVLAIYGYTFYSISQERFLDELEDEAKAARARALARASGS [COA3]
solubility in G1/S (log2) (HeLa Kyoto [1]): -0.65
solubility change mitosis (log2) (HeLa Kyoto [2]): 0.902

MASVLSYESLVHAVAGAVGSVTAMTVFFPLDTARLRLQVDEKRKSKTTHMVLLEIIKEEGLLAPYRGWFPVISSLCCSNFVYFYTFNSLKALWVKGQHSTTGKDLVVGFVAGVVNVLLTTPLWVVNTRLKLQGAKFRNEDIVPTNYKGIIDAFHQIIRDEGISALWNGTFPSLLLVFNPAIQFMFYEGLKRQLLKKRMKLSSLDVFIIGAVAKAIATTVTYPLQTVQSILRFGRHRLNPENRTLGSLRNILYLLHQRVRRFGIMGLYKGLEAKLLQTVLTAALMFLVYEKLTAATFTVMGLKRAHQH [SLC25A17]
solubility in G1/S (log2) (HeLa Kyoto [1]): -0.148
solubility change mitosis (log2) (HeLa Kyoto [2]): -0.0966

MASVRIREAKEGDCGDILRLIRELAEFEKLSDQVKISEEALRADGFGDNPFYHCLVAEILPAPGKLLGPCVVGYGIYYFIYSTWKGRTIYLEDIYVMPEYRGQGIGSKIIKKVAEVALDKGCSQFRLAVLDWNQRAMDLYKALGAQDLTEAEGWHFFCFQGEATRKLAGK [SAT2]
solubility in G1/S (log2) (HeLa Kyoto [1]): 0.139
solubility change mitosis (log2) (HeLa Kyoto [2]): -0.259

MASVSSATFSGHGARSLLQFLRLVGQLKRVPRTGWVYRNVQRPESVSDHMYRMAVMAMVIKDDRLNKDRCVRLALVHDMAECIVGDIAPADNIPKEEKHRREEEAMKQITQLLPEDLRKELYELWEEYETQSSAEAKFVKQLDQCEMILQASEYEDLEHKPGRLQDFYDSTAGKFNHPEIVQLVSELEAERSTNIAAAASEPHS [HDDC2]
solubility in G1/S (log2) (HeLa Kyoto [1]): 0.452
solubility change mitosis (log2) (HeLa Kyoto [2]): 0.118

MATSLDFKTYVDQACRAAEEFVNIYYETMDKRRRALTRLYLDKATLIWNGNAVSGLDALNNFFDTLPSSEFQVNMLDCQPVHEQATQSQTTVLVVTSGTVKFDGNKQHFFNQNFLLTAQSTPNNTVWKIASDCFRFQDWSSS [NXT2]
solubility in G1/S (log2) (HeLa Kyoto [1]): -0.596
solubility change mitosis (log2) (HeLa Kyoto [2]): 0.401

MAVTLSLLLGGRVCAAVTRCGFATRGVAGPGPIGREPDPDSDWEPEERELQEVESTLKRQKQAIRFQKIRRQMEAPGAPPRTLTWEAMEQIRYLHEEFPESWSVPRLAEGFDVSTDVIRRVLKSKFLPTLEQKLKQDQKVLKKAGLAHSLQHLRGSGNTSKLLPAGHSVSGSLLMPGHEASSKDPNHSTALKVIESDTHRTNTPRRRKGRNKEIQDLEESFVPVAAPLGHPRELQKYSSDSESPRGTGSGALPSGQKLEELKAEEPDNFSSKVVQRGREFFDSNGNFLYRI [NGRN]
solubility in G1/S (log2) (HeLa Kyoto [1]): 0.784
solubility change mitosis (log2) (HeLa Kyoto [2]): 0.276

MBD4
solubility in G1/S (log2) (HeLa Kyoto [1]): -0.669
solubility change mitosis (log2) (HeLa Kyoto [2]): 0.427

MCTKMEQPFYHDDSYTATGYGRAPGGLSLHDYKLLKPSLAVNLADPYRSLKAPGARGPGPEGGGGGSYFSGQGSDTGASLKLASSELERLIVPNSNGVITTTPTPPGQYFYPRGGGSGGGAGGAGGGVTEEQEGFADGFVKALDDLHKMNHVTPPNVSLGATGGPPAGPGGVYAGPEPPPVYTNLSSYSPASASSGGAGAAVGTGSSYPTTTISYLPHAPPFAGGHPAQLGLGRGASTFKEEPQTVPEARSRDATPPVSPINMEDQERIKVERKRLRNRLAATKCRKRKLERIARLEDKVKTLKAENAGLSSTAGLLREQVAQLKQKVMTHVSNGCQLLLGVKGHAF [JUNB]
solubility in G1/S (log2) (HeLa Kyoto [1]): 0.0721
solubility change mitosis (log2) (HeLa Kyoto [2]): 0.346

MDEADRRLLRRCRLRLVEELQVDQLWDALLSRELFRPHMIEDIQRAGSGSRRDQARQLIIDLETRGSQALPLFISCLEDTGQDMLASFLRTNRQAAKLSKPTLENLTPVVLRPEIRKPEVLRPETPRPVDIGSGGFGDVGALESLRGNADLAYILSMEPCGHCLIINNVNFCRESGLRTRTGSNIDCEKLRRRFSSLHFMVEVKGDLTAKKMVLALLELAQQDHGALDCCVVVILSHGCQASHLQFPGAVYGTDGCPVSVEKIVNIFNGTSCPSLGGKPKLFFIQACGGEQKDHGFEVASTSPEDESPGSNPEPDATPFQEGLRTFDQLDAISSLPTPSDIFVSYSTFPGFVSWRDPKSGSWYVETLDDIFEQWAHSEDLQSLLLRVANAVSVKGIYKQMPGCFNFLRKKLFFKTS [CASP9]
solubility in G1/S (log2) (HeLa Kyoto [1]): 0.32
solubility change mitosis (log2) (HeLa Kyoto [2]): -0.0656

MDEDGGGEGGGVPEDLSLEEREELLDIRRRKKELIDDIERLKYEIAEVMTEIDNLTSVEESKTTQRNKQIAMGRKKFNMDPKKGIQFLIENDLLQSSPEDVAQFLYKGEGLNKTVIGDYLGERDEFNIKVLQAFVELHEFADLNLVQALRQFLWSFRLPGEAQKIDRMMEAFASRYCLCNPGVFQSTDTCYVLSFAIIMLNTSLHNHNVRDKPTAERFIAMNRGINEGGDLPEELLRNLYESIKNEPFKIPEDDGNDLTHTFFNPDREGWLLKLGGGRVKTWKRRWFILTDNCLYYFEYTTDKEPRGIIPLENLSIREVEDPRKPNCFELYNPSHKGQVIKACKTEADGRVVEGNHVVYRISAPSPEEKEEWMKSIKASISRDPFYDMLATRKRRIANKK [CYTH3]
solubility in G1/S (log2) (HeLa Kyoto [1]): 0.26
solubility change mitosis (log2) (HeLa Kyoto [2]): -0.11

MDEQEALNSIMNDLVALQMNRRHRMPGYETMKNKDTGHSNRQSDVRIKFEHNGERRIIAFSRPVKYEDVEHKVTTVFGQPLDLHYMNNELSILLKNQDDLDKAIDILDRSSSMKSLRILLLSQDRNHNSSSPHSGVSRQVRIKASQSAGDINTIYQPPEPRSRHLSVSSQNPGRSSPPPGYVPERQQHIARQGSYTSINSEGEFIPETSEQCMLDPLSSAENSLSGSCQSLDRSADSPSFRKSRMSRAQSFPDNRQEYSDRETQLYDKGVKGGTYPRRYHVSVHHKDYSDGRRTFPRIRRHQGNLFTLVPSSRSLSTNGENMGLAVQYLDPRGRLRSADSENALSVQERNVPTKSPSAPINWRRGKLLGQGAFGRVYLCYDVDTGRELASKQVQFDPDSPETSKEVSALECEIQLLKNLQHERIVQYYGCLRDRAEKTLTIFMEYMPGGSVKDQLKAYGALTESVTRKYTRQILEGMSYLHSNMIVHRDIKGANILRDSAGNVKLGDFGASKRLQTICMSGTGMRSVTGTPYWMSPEVISGEGYGRKADVWSLGCTVVEMLTEKPPWAEYEAMAAIFKIATQPTNPQLPSHISEHGRDFLRRIFVEARQRPSAEELLTHHFAQLMY [MAP3K3]
solubility in G1/S (log2) (HeLa Kyoto [1]): 0.569
solubility change mitosis (log2) (HeLa Kyoto [2]): -0.169

MDFREILMIASKGQGVNNVPKRYSLAVGPPKKDPKVKGVQSAAVQAFLKRKEEELRRKALEEKRRKEELVKKRIELKHDKKARAMAKRTKDNFHGYNGIPIEEKSKKRQATESHTSQGTDREYEMEEENEFLEYNHAESEQEYEEEQEPPKVESKPKVPLKSAPPPMNFTDLLRLAEKKQFEPVEIKVVKKSEERPMTAEELREREFLERKHRRKKLETDGKLPPTVSKKAPSQKESVGTKLSKGSGDRHPSSKGMPLPHAEKKSRPSMANEKHLALSSSKSMPGERIKAGSGNSSQPSLREGHDKPVFNGAGKPHSSTSSPSVPKTSASRTQKSAVEHKAKKSLSHPSHSRPGPMVTPHNKAKSPGVRQPGSSSSSAPGQPSTGVARPTVSSGPVPRRQNGSSSSGPERSISGSKKPTNDSNPSRRTVSGTCGPGQPASSSGGPGRPISGSVSSARPLGSSRGPGRPVSSPHELRRPVSGLGPPGRSVSGPGRSISGSIPAGRTVSNSVPGRPVSSLGPGQTVSSSGPTIKPKCTVVSETISSKNIISRSSNGQMNGMKPPLSGYRAAQGPQRLPFPTGYKRQREYEEEDDDDDEYDSEMEDFIEDEGEPQEEISKHIREIFGYDRKKYKDESDYALRYMESSWKEQQKEEAKSLRLGMQEDLEEMRREEEEMQRRRAKKLKRR [SPTY2D1]
solubility in G1/S (log2) (HeLa Kyoto [1]): -1.47
solubility change mitosis (log2) (HeLa Kyoto [2]): 0.873

MDFSFSFMQGIMGNTIQQPPQLIDSANIRQEDAFDNNSDIAEDGGQTPYEATLQQGFQYPATTEDLPPLTNGYPSSISVYETQTKYQSYNQYPNGSANGFGAVRNFSPTDYYHSEIPNTRPHEILEKPSPPQPPPPPSVPQTVIPKKTGSPEIKLKITKTIQNGRELFESSLCGDLLNEVQASEHTKSKHESRKEKRKKSNKHDSSRSEERKSHKIPKLEPEEQNRPNERVDTVSEKPREEPVLKEEAPVQPILSSVPTTEVSTGVKFQVGDLVWSKVGTYPWWPCMVSSDPQLEVHTKINTRGAREYHVQFFSNQPERAWVHEKRVREYKGHKQYEELLAEATKQASNHSEKQKIRKPRPQRERAQWDIGIAHAEKALKMTREERIEQYTFIYIDKQPEEALSQAKKSVASKTEVKKTRRPRSVLNTQPEQTNAGEVASSLSSTEIRRHSQRRHTSAEEEEPPPVKIAWKTAAARKSLPASITMHKGSLDLQKCNMSPVVKIEQVFALQNATGDGKFIDQFVYSTKGIGNKTEISVRGQDRLIISTPNQRNEKPTQSVSSPEATSGSTGSVEKKQQRRSIRTRSESEKSTEVVPKKKIKKEQVETVPQATVKTGLQKGASEISDSCKPLKKRSRASTDVEMTSSAYRDTSDSDSRGLSDLQVGFGKQVDSPSATADADVSDVQSMDSSLSRRGTGMSKKDTVCQICESSGDSLIPCEGECCKHFHLECLGLASLPDSKFICMECKTGQHPCFSCKVSGKDVKRCSVGACGKFYHEACVRKFPTAIFESKGFRCPQHCCSACSMEKDIHKASKGRMMRCLRCPVAYHSGDACIAAGSMLVSSYILICSNHSKRSSNSSAVNVGFCFVCARGLIVQDHSDPMFSSYAYKSHYLLNESNRAELMKLPMIPSSSASKKKCEKGGRLLCCESCPASFHPECLSIEMPEGCWNCNDCKAGKKLHYKQIVWVKLGNYRWWPAEICNPRSVPLNIQGLKHDLGDFPVFFFGSHDYYWVHQGRVFPYVEGDKSFAEGQTSINKTFKKALEEAAKRFQELKAQRESKEALEIEKNSRKPPPYKHIKANKVIGKVQIQVADLSEIPRCNCKPADENPCGLESECLNRMLQYECHPQVCPAGDRCQNQCFTKRLYPDAEIIKTERRGWGLRTKRSIKKGEFVNEYVGELIDEEECRLRIKRAHENSVTNFYMLTVTKDRIIDAGPKGNYSRFMNHSCNPNCETQKWTVNGDVRVGLFALCDIPAGMELTFNYNLDCLGNGRTECHCGADNCSGFLGVRPKSACASTNEEKAKNAKLKQKRRKIKTEPKQMHEDYCFQCGDGGELVMCDKKDCPKAYHLLCLNLTQPPYGKWECPWHQCDECSSAAVSFCEFCPHSFCKDHEKGALVPSALEGRLCCSEHDPMAPVSPEYWSKIKCKWESQDHGEEVKE [WHSC1L1]
solubility in G1/S (log2) (HeLa Kyoto [1]): -0.563
solubility change mitosis (log2) (HeLa Kyoto [2]): 0.362
